Assay results published in publication PMC11044049 (The Journal of Biological Chemistry, 2024).
Where a chain is given by its changes, count along the chain named. Names may count otherwise.

B1: γ subunit of the E. coli clamp loader (residues 1-373) (domain or fragment, UniProt P06710 1-373, looked up)
chain: MSYQVLARKWRPQTFADVVGQEHVLTALANGLSLGRIHHAYLFSGTRGVGKTSIARLLAKGLNCETGITATPCGVCDNCREIEQGRFVDLIEIDAASRTKVEDTRDLLDNVQYAPARGRFKVYLIDEVHMLSRHSFNALLKTLEEPPEHVKFLLATTDPQKLPVTILSRCLQFHLKALDVEQIRHQLEHILNEEHIAHEPRALQLLARAAEGSLRDALSLTDQAIASGDGQVSTQAVSAMLGTLDDDQALSLVEAMVEANGERVMALINEAAARGIEWEALLVEMLGLLHRIAMVQLSPAALGNDMAAIELRMRELARTIPPTDIQLYYQTLLIGRKELPYAPDRRMGVEMTLLRALAFHPRMPLPEPEVPRQ
notes: γ subunit of the E. coli clamp loader, truncated form, residues 1-373; Stands for the single γ subunits within the γ-complex; also called γ protein; B, C and D subunits; source: E. coli BLR21(DE3), purified (HisTrap, Prescission Protease, HisTrap flowthrough); not shown: His6, N-terminal, cleaved
B2: γ-K141A (domain or fragment, E. coli, UniProt P06710 1-373, looked up)
chain: B1 chain with K141A
notes: γ subunit of the E. coli clamp loader with K141A; insert bought from Twist Bioscience; the range 1-373 is stated for the γ subunit in general; The limits 1-373 are not repeated for the mutant itself; source: E. coli BLR21(DE3), purified (Nickel NTA agarose, Prescission Protease, HisTrap); not shown: His6, N-terminal, cleaved

What was measured:
[1] = target: the molecule itself; assay: cryo-EM structure; 2.5 μM clamp loader and 2.2 μM sliding clamp, 1 mM ADP·BeFx, cross-linked with 1 mM BS3; 25 mM HEPES-NaOH pH 8.0, 200 mM NaCl, 4 mM MgCl2, 1 mM TCEP; Semi-Open and Fully-Open states
[2] = target: the molecule itself; assay: reconstitution and co-elution on anion exchange (HiTrap Q); purified γ (WT or K141A), δ and δ′ (WT or K130A) combined 2.5:1:1, dialysed into Buffer Q-A (50 mM Tris pH 7.5, 50 mM NaCl, 10% glycerol, 2 mM DTT) overnight at 4 °C, eluted from a HiTrap Q column with a NaCl gradient; fractions with the intact complex pooled

Row | Protein | binding result [1] | binding result [2]
1 | B1 | binds | 
2 | B2 |  | binds
